Laboratory results published in PMC9909341, “TLQP-21 is a low potency partial C3aR activator on human primary macrophages” (Frontiers in Immunology, 2023).
Like-named read-outs stand apart in the source and are kept apart here.

T1: Human complement C3a receptor, endogenous on human monocyte-derived macrophages (human (endogenous in HMDMs)) (UniProt Q16581)
T1 sequence: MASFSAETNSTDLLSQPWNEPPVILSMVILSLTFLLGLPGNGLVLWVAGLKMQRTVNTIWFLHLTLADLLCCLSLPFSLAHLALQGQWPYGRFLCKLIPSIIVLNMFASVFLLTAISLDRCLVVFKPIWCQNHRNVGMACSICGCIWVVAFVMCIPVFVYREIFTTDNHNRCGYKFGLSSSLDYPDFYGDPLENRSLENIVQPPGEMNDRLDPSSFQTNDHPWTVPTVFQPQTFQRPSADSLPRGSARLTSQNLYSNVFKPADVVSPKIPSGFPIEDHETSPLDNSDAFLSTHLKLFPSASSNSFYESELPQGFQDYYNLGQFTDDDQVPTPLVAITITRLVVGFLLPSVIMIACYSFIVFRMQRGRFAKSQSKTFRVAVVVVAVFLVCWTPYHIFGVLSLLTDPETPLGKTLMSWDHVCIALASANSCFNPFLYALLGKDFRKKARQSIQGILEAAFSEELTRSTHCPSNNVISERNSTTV

T2: Human complement C3a receptor, stably expressed on CHO cells (human) (UniProt Q16581)
T2 sequence: T1 sequence

T3: Murine complement C3a receptor, endogenous on mouse bone marrow-derived macrophages (mouse (endogenous in BMDMs)) (UniProt O09047)
T3 sequence: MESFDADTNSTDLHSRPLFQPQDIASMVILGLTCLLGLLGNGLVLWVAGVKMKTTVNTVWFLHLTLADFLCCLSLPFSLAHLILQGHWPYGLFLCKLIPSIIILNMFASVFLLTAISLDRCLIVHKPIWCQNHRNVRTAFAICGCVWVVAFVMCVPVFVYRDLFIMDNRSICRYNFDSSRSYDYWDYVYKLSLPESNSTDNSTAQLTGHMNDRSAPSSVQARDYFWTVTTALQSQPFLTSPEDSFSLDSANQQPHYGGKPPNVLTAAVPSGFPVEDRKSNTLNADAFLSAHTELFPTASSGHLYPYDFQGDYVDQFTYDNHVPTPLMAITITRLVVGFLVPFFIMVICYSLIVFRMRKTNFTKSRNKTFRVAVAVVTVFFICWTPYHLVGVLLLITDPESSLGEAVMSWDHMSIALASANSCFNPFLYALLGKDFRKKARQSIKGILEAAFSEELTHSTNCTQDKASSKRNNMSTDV

T4: human C3aR (Homo sapiens, UniProt Q16581)
T4 sequence (Q16581 1-482): T1 sequence

B1: Human TLQP-21 (peptide)
peptide: TLQPPSALRRRHYHHALPPSR
B2: Mouse TLQP-21 (peptide)
peptide: TLQPPASSRRRHFHHALPPAR

Columns and labels:
[1] = molecular target: T1, Human complement C3a receptor, endogenous on human monocyte-derived macrophages (human (endogenous in HMDMs))
[2] = molecular target: T2, Human complement C3a receptor, stably expressed on CHO cells (human)
[3] = molecular target: T1, Human complement C3a receptor, endogenous on human monocyte-derived macrophages (human (endogenous in HMDMs)); remark: listed apart in the source
[4] = molecular target: T2, Human complement C3a receptor, stably expressed on CHO cells (human); remark: listed apart in the source
[5] = molecular target: Endogenous C3aR of CHO-K1 cells (Chinese hamster (endogenous in CHO-K1))
[6] = molecular target: T3, Murine complement C3a receptor, endogenous on mouse bone marrow-derived macrophages (mouse (endogenous in BMDMs))
[7] = tested on: BMDM (murine C3aR); type: cell-based, mouse; conditions: wild-type C57BL/6J BMDMs, 90,000/well; 10 min stimulation at RT; AlphaLISA p-ERK1/2; n = 3 mice; C3a is recombinant mouse C3a; read-out: EC50 (pERK1/2), BMDM
Protocol: Mouse bone marrow-derived macrophages (BMDMs) were obtained and cultured as previously described ([20], [21]). All experiments using mice were approved by the University of Queensland animal ethics committee. Wild-type and C3aR^-/- mice on a C57BL/6J genetic background (n = 3) were sacrificed by cervical dislocation. The tibia was removed and sterilised. Upon removal of both epiphyses, bone marrow cells were harvested by flushing the central cavity with complete RPMI-1640 medium using a 10 ml syringe attached to a 25-gauge needle. Cells were then cultured in complete RPMI-1640 medium (containing 10 % FBS, 100 IU/ml penicillin, 100 μg/ml streptomycin) supplemented with 100 ng/ml recombinant human macrophage colony stimulating factor on 10 mm square dishes. Mature adherent macrophages for assays were harvested on day 6-7 by gentle scraping.
(§1) Ligand-induced ERK1/2 phosphorylation was assessed using the AlphaLISA Surefire Ultra p-ERK1/2 (Thr202/Tyr204) kit (PerkinElmer, Melbourne, Australia) following the manufacturer’s protocol as previously described ([18], [20], [22]). Briefly, CHO-K1, CHO-C3aR, CHO-C5aR1, HMDMs (50,000/well) or BMDMs (90,000/well) were seeded in tissue culture-treated 96-well plates (Corning, Corning, USA) for 24 h and serum-starved overnight. All ligand dilutions were prepared in serum-free medium (SFM) containing 0.1% BSA. For inhibition assays, cells were pre-treated with the following ligands (5 µM SB290157, or respective concentrations of hC3a, mC3a, hC5a, hTLQP-21, and mTLQP-21) or the solvent-only control for 30 min before agonist (hC3a, hTLQP-21 and mTLQP-21) addition. The concentration and identity of the ligands are described in detail in the figure legends. For stimulation, cells were treated with ligands at the indicated concentrations for 10 min at RT and then immediately lysed using AlphaLISA lysis buffer on a microplate shaker (450 rpm, 10 min). For the detection of phospho-ERK1/2 content, cell lysate (5 μL/well) was transferred to a 384-well ProxiPlate (PerkinElmer, Melbourne, Australia) and added to the donor and acceptor reaction mix (2.5 μL/well, respectively), followed by a 2-h incubation at RT in the dark. On a Tecan Spark 20M (Tecan, Männedorf, Switzerland), the plate was measured using standard AlphaLISA settings.
(§2) All experiments were conducted in triplicates and repeated on three separate occasions unless otherwise specified. Data was analysed using GraphPad software (Prism 9.1). Data from each individual repeat was normalised accordingly (as specified in the figure legends) before being combined and expressed as mean ± standard error of the mean (S.E.M.) unless otherwise described. For all dose-response studies, logarithmic concentration-response curves were plotted using combined data and analysed to determine the respective potency values. Statistical analysis was performed using two-way ANOVA with Dunnett’s post hoc analysis. Donor-matched comparisons were made for HMDM experiments. Differences were deemed significant when p < 0.05.
Figure 4 TLQP-21 triggers ERK signalling through C3aR in murine bone marrow-derive macrophages. BMDMs (90,000/well) from wildtype mice (A) or with C3aR knockout mice (B), were serum-starved overnight and then stimulated with respective ligands at the indicated concentrations for 10 min. The phospho-ERK1/2 content in the cell lysate was measured and normalised to the medium only-treated levels before being combined. Data represent mean ± S.E.M. of triplicate measurements using cells from 3 mice (n = 3).

[8] = molecular target: T4, human C3aR; test: phospho-ERK1/2 assay in CHO-C3aR cells; type: cell-based; conditions: efficacy relative to hC3a; fold baseline normalised; n = 3-4
Protocol: Cell lines for this study were cultured as previously described ([20]). Non-transfected CHO-K1 cells or CHO cells stably expressing the human C3aR (CHO-C3aR; Product # ES-730-C, PerkinElmer, Melbourne, Australia) were maintained in Ham’s F12 medium containing 10% foetal bovine serum (FBS), 100 IU/ml penicillin and 100 μg/ml streptomycin, with additional 400 μg/ml G418 (In vivoGen, San Diego, USA) added for CHO-C3aR cell culture. HEK293 cells were maintained in DMEM medium containing 10% FBS, 100 IU/ml penicillin and 100 μg/ml streptomycin. All cell lines were maintained in T175 flasks (37°C, 5% CO2) and subcultured at 80-90% confluency using 0.05% trypsin-EDTA in DPBS.
as §1, §2
Figure 1 hTLQP-2 and mTLQP-21 activate ERK signalling in CHO-K1 and CHO-C3aR cells. hTLQP-21, mTLQP-21 and plasma-derived human C3a were tested in (A) non-transfected CHO-K1 or (B) CHO cells stably expressing human C3aR. CHO cells were serum-starved overnight and then stimulated with various ligands for 10 min before being lysed. The phospho-ERK1/2 content in the lysate was measured and expressed as fold-baseline before being combined. The maximum relative pERK1/2 activity induced by each ligand is shown in (C). Data represent mean ± S.E.M. of triplicate measurements from 3-4 independent experiments (n = 3-4). Two-way ANOVA with Dunnett’s post hoc analysis. *P < 0.05, ***P < 0.001, ****P < 0.0001. Ligand treated versus medium treated cells for each cell line.

[9] = tested on: HMDM (endogenous human C3aR); type: cell-based; conditions: 10 min stimulation at RT, n = 4 donors
Excerpt: HMDMs were generated and cultured as previously described ([20]), with experiments approved by The University of Queensland Human Research Ethics Committee. Briefly, human buffy coat blood from anonymous healthy donors was obtained through the Australian Red Cross Blood Service (Brisbane, Australia). Human CD14+ monocytes were isolated from blood using Lymphoprep density centrifugation (STEMCELL, Melbourne, Australia) followed by CD14+ MACS magnetic bead separation (Miltenyi Biotec, Sydney, Australia). The isolated monocytes were differentiated for 7 days in Iscove’s Modified Dulbecco’s Medium supplemented with 10% FBS, 100 IU/ml penicillin, 100 μg/ml streptomycin and 15 ng/ml recombinant human macrophage colony stimulating factor (BioLegend, San Diego, USA) on 10 mm square dishes (Bio-strategy, Brisbane, Australia). Non-adherent cells were removed by washing with DPBS, and the adherent differentiated HMDMs were harvested by gentle scraping.
as §1, §2
Figure 3 Agonistic and antagonistic activities of hTLQP-21 and mTLQP-21 in human monocyte-derived macrophages. Serum-starved HMDMs (50,000/well) were (A) stimulated with medium or respective ligands at the indicated concentrations for 10 min and then lysed, or (B) pre-treated with 5 µM SB290157 for 30 min prior to stimulation. (C) HMDMs were pre-treated with 10 μM hTLQP-21 or mTLQP-21 for 30 min before being stimulated with respective concentrations of human C3a. (D) HMDMs were pre-treated with 10 nM hC3a, 10 μM hTLQP-21 or mTLQP-21 for 30 min before being stimulated with the same concentrations of the above ligands for 10 min and then lysed. (E) HMDMs were pre-treated with 10 μM hTLQP-21 or mTLQP-21 for 30 min before being stimulated with respective concentrations of human C5a for 10 min and then lysed. […]

[10] = molecular target: T1, Human complement C3a receptor, endogenous on human monocyte-derived macrophages (human (endogenous in HMDMs)); remark: listed apart in the source

Row | Molecule | EC50 (nM) of ERK1/2 phosphorylation in HMDMs [1] [nM] | EC50 (nM) of ERK1/2 phosphorylation in CHO-C3aR cells [2] [nM] | EC50 (nM) of ERK1/2 phosphorylation in BMDMs [6] [nM] | EC50 [7] [nM] | further results
1 | Human C3a (from UniProt P01024 672-748) (ligand) | 0.11 | 0.15 |  |  | C3a-induced ERK signalling in HMDMs pre-treated with the C3aR antagonist SB290157, % of the untreated level (% of the untreated level) [3]: < 20; relative efficacy of C3a-induced ERK signalling in CHO-C3aR cells, fold baseline (fold baseline) [4]: 7.3; relative efficacy of C3a-induced ERK signalling in CHO-K1 cells, fold baseline (fold baseline) [5]: 2.7
2 | Recombinant mouse C3a (from UniProt P01027 671-748) (ligand) |  |  | 8.4 |  | 
3 | mC3a: Recombinant mouse C3a, purchased from R&D Systems |  |  |  | 8.4 | 
4 | CC(C)C[C@H](NC(=O)[C@@H](N)[C@@H](C)O)C(=O)N[C@@H](CCC(N)=O)C(=O)N1CCC[C@H]1C(=O)N1CCC[C@H]1C(=O)N[C@@H](C)C(=O)N[C@@H](CO)C(=O)N[C@@H](CO)C(=O)N[C@@H](CCCNC(=N)N)C(=O)N[C@@H](CCCNC(=N)N)C(=O)N[C@@H](CCCNC(=N)N)C(=O)N[C@@H](Cc1c[nH]cn1)C(=O)N[C@@H](Cc1ccccc1)C(=O)N[C@@H](Cc1c[nH]cn1)C(=O)N[C@@H](Cc1c[nH]cn1)C(=O)N[C@@H](C)C(=O)N[C@@H](CC(C)C)C(=O)N1CCC[C@H]1C(=O)N1CCC[C@H]1C(=O)N[C@@H](C)C(=O)N[C@@H](CCCNC(=N)N)C(=O)O [mTLQP-21] |  |  |  | 96.5 | % C3a activity ± SE, CHO-C3aR [8]: 91.8 ± 2.7%; EC50 ([9]; primary human macrophages, 50,000/well, AlphaLISA p-ERK1/2, read-out: EC50 (pERK1/2), HMDM): 2850 nM
5 | CC(C)C[C@H](NC(=O)[C@H](C)NC(=O)[C@H](CO)NC(=O)[C@@H]1CCCN1C(=O)[C@@H]1CCCN1C(=O)[C@H](CCC(N)=O)NC(=O)[C@H](CC(C)C)NC(=O)[C@@H](N)[C@@H](C)O)C(=O)N[C@@H](CCCNC(=N)N)C(=O)N[C@@H](CCCNC(=N)N)C(=O)N[C@@H](CCCNC(=N)N)C(=O)N[C@@H](Cc1c[nH]cn1)C(=O)N[C@@H](Cc1ccc(O)cc1)C(=O)N[C@@H](Cc1c[nH]cn1)C(=O)N[C@@H](Cc1c[nH]cn1)C(=O)N[C@@H](C)C(=O)N[C@@H](CC(C)C)C(=O)N1CCC[C@H]1C(=O)N1CCC[C@H]1C(=O)N[C@@H](CO)C(=O)N[C@@H](CCCNC(=N)N)C(=O)O [hTLQP-21] |  |  |  | 401 | % C3a activity ± SE, CHO-C3aR [8]: 87.0 ± 3.5%; EC50 ([9]; estimated, read-out: estimated EC50 (pERK1/2), HMDM): 14800 nM
6 | B1 | 14800 | 587 | 401 |  | hTLQP-21 induced ERK activation in HMDMs pre-treated with the C3aR antagonist SB290157 (5 μM, 30 min), % of the control level (% of the control level) [10]: 29
7 | B2 | 2850 | 83.6 | 96.5 |  | ERK signalling in HMDMs by 10 μM mTLQP-21 under the control conditions of Figure 3B, % of the C3a induced activity (% of the C3a induced activity) [10]: 40; mTLQP-21 induced ERK activation in HMDMs pre-treated with the C3aR antagonist SB290157 (5 μM, 30 min), % of the control level (% of the control level) [10]: 16
